The values below come from WO2021160116A1 (dated 2021).

The assay has as its target T1, human FcRn-β2M complex (human FcRn extracellular region with His-tagged human β2M) (human, UniProt P55899 24-297; P61769 21-119, randomly biotinylated in the ELISA (biotin-hFcRn)).
T1 construct: Purified by Ni-Sepharose and Superdex200; Used biotinylated in the ELISA and as analyte in Biacore; also called FcRn antigen; hFcRn; not shown: His tag
The assay is described as follows: ELISA, biotin-hFcRn on NeutrAvidin plate, pH 6.0.

T1 sequence (P55899 24-297 limits assumed, chain 1 of 2): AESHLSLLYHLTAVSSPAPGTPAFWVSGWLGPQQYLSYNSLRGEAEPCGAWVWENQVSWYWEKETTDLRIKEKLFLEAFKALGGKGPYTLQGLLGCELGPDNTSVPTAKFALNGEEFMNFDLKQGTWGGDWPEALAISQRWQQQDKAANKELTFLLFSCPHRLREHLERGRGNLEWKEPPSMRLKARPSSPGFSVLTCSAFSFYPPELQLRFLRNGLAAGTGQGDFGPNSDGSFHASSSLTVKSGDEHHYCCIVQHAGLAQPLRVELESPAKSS
T1 sequence (P61769 21-119 limits assumed, chain 2 of 2): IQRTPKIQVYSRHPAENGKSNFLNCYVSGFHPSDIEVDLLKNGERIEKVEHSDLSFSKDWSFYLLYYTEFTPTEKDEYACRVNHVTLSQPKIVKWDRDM

B1: Argx-113 (other)
chain: DKTHTCPPCPAPELLGGPSVFLFPPKPKDTLYITREPEVTCVVVDVSHEDPEVKFNWYVDGVEVHNAKTKPREEQYNSTYRVVSVLTVLHQDWLNGKEYKCKVSNKALPAPIEKTISKAKGQPREPQVYTLPPSRDELTKNQVSLTCLVKGFYPSDIAVEWESNGQPENNYKTTPPVLDSDGSFFLYSKLTVDKSRWQQGNVFSCSVMHEALKFHYTQKSLSLSPGK
Turning to B1, the EC50 is 0.9 µg/mL.

The term EC50 denotes the midpoint of the concentration-response curve.
